The values that follow come from patent US9688764B2, “Methods of treating breast cancer by administering anti-human prolactin receptor (PRLR) antibodies” (REGENERON PHARMACEUTICALS, INC., priority 2013, dated 2017).

Like-named read-outs stand apart in the source and are kept apart here.

One series concerns MCF7 (MCF7/ATCC) cells. The experiment in a line: Cell viability (cell kill) assay, nuclear counts. The format is cell-based. The source says:
(§1) PRLR-overexpressing cells, including HEK293, PC3, MCF7 and NCI-N87, were generated to assess the ability of anti-PRLR conjugated antibodies to reduce cell viability. For comparative purposes, PC3 and T47D cells with overexpressed ErbB2 were also generated, as well as an MCF7 cell line over-expressing both hPRLR and hErbB2. Briefly, Lipofectamine® 2000-mediated transfection methodology was utilized to generate HEK293 cells expressing human PRLR (HEK293/hPRLR) or human ErbB2 (HEK293/hErbB2). Lipofectamine LTX with Plus Reagent was used to generate PC3 cells expressing human PRLR (PC3/hPRLR) or human ErbB2 (PC3/hErbB2). Lentiviral-mediated transduction was utilized to generate MCF7 cells expressing human PRLR (MCF7/hPRLR), NCI-N87 cells expressing human PRLR (NCI-N87/hPRLR), T47D cells over-expressing human ErbB2 (T47D/hErbB2), and MCF7 cells expressing both human PRLR and human ErbB2 (MCF7/hPRLR/hErbB2). All lines were selected for at least two weeks in complete growth media plus appropriate selection reagents. Stably expressing populations were enriched for PRLR expression via FACS using the anti PRLR antibody Control I.
(§2) Next, the ability of anti-PRLR-DM1 antibody-drug conjugates (i.e., anti-PRLR antibodies conjugated to DM1 via a non-cleavable linker [SMCC]) to reduce cell viability was determined using in vitro cell based assays. Cells were seeded in PDL-coated 96 well plates at 1500 to 10000 cells per well in complete growth media and allowed to grow overnight. For cell viability curves, ADCs or free DM1 (as the methyl disulfide derivative DM1-SMe) were added to the cells at final concentrations ranging from 500 nM to 5 pM and incubated for 3 days. The 293, PC3 and T47D cells were incubated with CCK8 (Dojindo, Rockville, Md.) for the final 1-3 hours and the absorbance at 450 nm (OD450) was determined on a Flexstation3 (Molecular Devices, Sunnyvale, Calif.). MCF7 cells were treated with Hoechst 33342 nuclear stain while being fixed with 4% formaldehyde. Images were acquired on the ImageXpress micro XL (Molecular Devices, Sunnyvale, Calif.) and nuclear counts were determined via Columbus image analysis software (Perkin Elmer, Shelton, Conn.). Background OD450 values (PC3, 293, and T47D) or nuclear counts (MCF7) from digitonin (40 nM) treated cells was subtracted from all wells and viability was expressed as a percentage of the untreated controls. IC50 values were determined from a four-parameter logistic equation over a 10-point response curve (GraphPad Prism).
(§3) Finally, the potency of anti-PRLR antibodies conjugated to DM1 via the non-cleavable linker SMCC was compared to the cell killing potency of anti-PRLR antibodies conjugated to MMAE via the cleavable linker: mc-vc-PAB (available from Concortis, San Diego, Calif.). Cells used in this experiment were PC3, PC3/hPRLR, MCF7/ATCC and MCF7/PRLR.
(§4) Additional toxins (DM4, MeNHC3-May, and MMD) conjugated to anti-PRLR antibodies were also tested in T47D and MCF7/hPRLR cell lines, and results are summarized in Tables 19 (293 and T47D cell killing) and 20 (MCF7/ATCC and MCF7/PRLR cell killing). (ND=not detected).

Another series has as its system T47D cells. The experiment in a line: Cell viability (cell kill) assay. The following applies: T47D; for IC50: read-out: IC50. Format: cell-based. The method, then: as §2
Additionally, the impact of the PRLR ligand, PRL, on PRLR-SMCC-DM1 cell kill in T47D cells was assessed. T47D cells were incubated simultaneously with PRL (15 nM) and either a non-blocking anti PRLR antibody (H1H6782P) or a receptor blocking antibody (H1H6958N2).
as §4

The subject of another series is HEK293 (293) cells. The experiment in a line: Cell viability (cell kill) assay. Format: cell-based. The note with it: 293; Table 19.
Excerpt: as §1, §2

The subject of series [1] is MCF7/hPRLR (MCF7/PRLR) cells. The experiment in a line: Cell viability (cell kill) assay, nuclear counts. The format is cell-based, human.
Excerpt: as §1, §2, §3, §4

A short description of series [2]: Conjugate characterization: protein and linker/payload concentrations, payload loading (UV, MALDI-TOF, SEC-HPLC, RP-HPLC). Format: physicochemical. The note with it: Anti-PRLR-SMCC-DM1 conjugates; Table 9. The source says:
Selected anti-PRLR antibodies were conjugated to the maytansinoid DM1 through an SMCC linker using methods similar to those set forth in U.S. Pat. No. 5,208,020 and US Patent Application Publication No. 2010/0129314, the disclosures of which are incorporated by reference herein in their entireties. The conjugates were purified by size exclusion chromatography and sterile filtered. All starting materials and solvents were purchased commercially and used without purification, unless otherwise noted.
Protein and linker/payload concentrations were determined by UV spectral analysis and MALDI-TOF mass spectrometry. Size-exclusion HPLC established that all conjugates used were >95% monomeric, and RP-HPLC established that there was <0.5% unconjugated linker payload. Yields are reported in Table 8 and 9 based on protein. All conjugated antibodies were analyzed by UV for linker payload loading values according to Hamblett et al, 2004, Clinical Cancer Research 10(20):7063-7070, and by mass difference, native versus conjugated.

A further series concerns PC3/hPRLR cells. The experiment in a line: Cell viability (cell kill) assay. Format: cell-based, human.
Excerpt: as §1, §2, §3

B1: H1H6782P-mc-VC-PAB-MMD (conjugate)
VH: EVQLVESGGGLVQPGRSLRLSCAASGFTFDDYAMHWVRQAPGKGLEWVSGIIWNSGHIGYGDSVKGRFTISRDNAKKSLYLQMNSLRAEDTALYYCARDSGRYQSYFDYWGQGTLVTVSS
VL: DIQMTQSPSTLSASVGDRVTITCRASHIISSWLAWYQQKPGKAPKVLIFKASSLESGVPSRFSGSGSGTEFTLTISSLQPDDFATYYCQQYNTYSRTFGQGTKVEIK
As for B1, the “% Kill” value in the series with MCF7 (MCF7/ATCC) cells (MCF7/ATCC, Table 20) came out at 50%; with T47D cells (Table 19), 90%; with HEK293 (293) cells, 70%; in series [1] (Table 20), 90%. The IC50 came out at 200 nM in the series on MCF7 (MCF7/ATCC) cells (MCF7/ATCC, Table 20); 2 nM with T47D cells (Table 19); 0.3 nM in series [1] (Table 20).

B2: H1H6782P-mc-VC-PAB-MeNHC3-May (conjugate)
VH: EVQLVESGGGLVQPGRSLRLSCAASGFTFDDYAMHWVRQAPGKGLEWVSGIIWNSGHIGYGDSVKGRFTISRDNAKKSLYLQMNSLRAEDTALYYCARDSGRYQSYFDYWGQGTLVTVSS
VL: DIQMTQSPSTLSASVGDRVTITCRASHIISSWLAWYQQKPGKAPKVLIFKASSLESGVPSRFSGSGSGTEFTLTISSLQPDDFATYYCQQYNTYSRTFGQGTKVEIK
Turning to B2, the “% Kill” value in the series with MCF7 (MCF7/ATCC) cells (MCF7/ATCC, Table 20) is 50%; in the series with T47D cells (Table 19) it was 90%; in the series on HEK293 (293) cells it was 90%; in series [1] (Table 20), 80%. Moreover, the IC50 with MCF7 (MCF7/ATCC) cells (MCF7/ATCC, Table 20) worked out at 250 nM; in the series on T47D cells (Table 19) it was 2 nM; in series [1] (Table 20), 0.2 nM.

B3: H1H6953N-mc-VC-PAB-MMD (conjugate)
VH: EVQLLESGGGLVQPGGTLRLSCAASGFTFSAYAMSWVRQAPGKGLEWVSSINVRAGDTYYADSVKGRFTISRDNSKNTLFLLMNSLRAEDTAAYYCAKARYSSNWGFDFWGQGTLVTVSS
VL: DIVMTQSPDSLTVSLGARTTINCQSSQTILHSSNNHNYLAWYQQKPGLPPKLLIYWSSTRESGVPDRFSGSGSGTDFTLTISSLQAEDVAIYYCQQYSNTPYTFGQGTKLEIN
For B3, the “% Kill” value amounted to 50% in the series with MCF7 (MCF7/ATCC) cells (MCF7/ATCC, Table 20); 90% in the series with T47D cells (Table 19); 70% in the series with HEK293 (293) cells; 90% in series [1] (Table 20). Besides, the half-inhibitory concentration (IC50) in the series with T47D cells (Table 19) came to 1 nM; in series [1] (Table 20), 0.2 nM.

B4: H1H6793P-DM1 (conjugate)
VH: EVQLVESGGGLVQPGGSLRLSCAASGFSFSIYAMSWFRQAPGKGLEWVSAINGRGDGTHYADSVKGRFTISRDNSKTTLYLQMSSLRAEDTAVYYCAKPVMSTNGFDIWGQGTMVTVSS
VL: DIQMTQSPSTLSASVGDRVTITCRASQSISSWLAWYQLKPGKAPKLLIYKASNLESGVPSRFSGSGSGTEFTLTISSLQPDDFATYYCQQYNIYWTFGQGTKVEIK
In the case of B4, in series [2], the “Payload:Antibody Molar Ratio (MS)” value is reported as 3.8. Also, the “% Kill” value with PC3/hPRLR cells (PC3/PRLR, Table 11, 3 days) worked out at 65%; in the series on MCF7 (MCF7/ATCC) cells (MCF7, Table 12, 3 days), 67%; in the series on T47D cells (Table 12, 3 days) it was 53%; in series [1] (Table 12, 3 days) it was 87%. Further, the IC50 with PC3/hPRLR cells (PC3/PRLR, Table 11, 3 days) was 3.65 nM; in the series with MCF7 (MCF7/ATCC) cells (MCF7, Table 12, 3 days), 125 nM; with T47D cells (Table 12, 3 days), 11.1 nM; in series [1] (Table 12, 3 days) it was 0.54 nM.

B5: H1H6975P-DM1 (conjugate)
VH: EVHLVESGGGLVQPGGSLRLSCAASGFTFSSYEMNWVRQTPGKGLEWISHISSRSVIIYYADSVKGRFTISRDNAKNSLFLQMNSLRAEDTAVYFCAGITIFGIPEYWGQGTLVTVSS
VL: EIVLTQSPATLSLSPGERATLSCRASQSVSSYFAWYQQKPGQAPRLLIYDASSRATGIPTRFSGSGSGTDFTLTISSLEPEDFAVYYCQQRSSWPITFGQGTRLEIK
As to B5, in series [2], the “Payload:Antibody Molar Ratio (MS)” value is recorded as 3.4 and the “Payload:Antibody Molar Ratio (UV)” value is reported as 3.0.

B6: H1H6975P-SMCC-DM1 (conjugate)
VH: EVHLVESGGGLVQPGGSLRLSCAASGFTFSSYEMNWVRQTPGKGLEWISHISSRSVIIYYADSVKGRFTISRDNAKNSLFLQMNSLRAEDTAVYFCAGITIFGIPEYWGQGTLVTVSS
VL: EIVLTQSPATLSLSPGERATLSCRASQSVSSYFAWYQQKPGQAPRLLIYDASSRATGIPTRFSGSGSGTDFTLTISSLEPEDFAVYYCQQRSSWPITFGQGTRLEIK
As for B6, the “% Kill” value was determined as 70% in the series with MCF7 (MCF7/ATCC) cells (MCF7/ATCC, Table 20); 100% in the series on T47D cells (Table 19); 90% with HEK293 (293) cells; 80% in series [1] (Table 20). The IC50 with MCF7 (MCF7/ATCC) cells (MCF7/ATCC, Table 20) was found to be 200 nM; in the series with T47D cells (Table 19), 2 nM; with HEK293 (293) cells, 80 nM; in series [1] (Table 20) it was 0.2 nM.

B7: H1H6975P-mc-VC-PAB-MMD (conjugate)
VH: EVHLVESGGGLVQPGGSLRLSCAASGFTFSSYEMNWVRQTPGKGLEWISHISSRSVIIYYADSVKGRFTISRDNAKNSLFLQMNSLRAEDTAVYFCAGITIFGIPEYWGQGTLVTVSS
VL: EIVLTQSPATLSLSPGERATLSCRASQSVSSYFAWYQQKPGQAPRLLIYDASSRATGIPTRFSGSGSGTDFTLTISSLEPEDFAVYYCQQRSSWPITFGQGTRLEIK
As for B7, the “% Kill” value in the series with MCF7 (MCF7/ATCC) cells (MCF7/ATCC, Table 20) amounted to 50%; in the series on T47D cells (Table 19), 90%; in the series on HEK293 (293) cells, 80%; in series [1] (Table 20), 90%. For the same molecule, the IC50 in the series on MCF7 (MCF7/ATCC) cells (MCF7/ATCC, Table 20) turned out to be 150 nM; in the series on T47D cells (Table 19), 3 nM; in series [1] (Table 20), 0.2 nM.

B8: H1H6765P-SMCC-DM1 (conjugate)
VH: EVQLVESGGGVVRPGGSLRLSCVGSGFSFDDHGMNWVRQGPGKGLEWVSGFNWNGGSTNYAESVKGRFTISRDNARNSLFLQMNSLRAEDTALYYCVRGRSGWFNDAFDVWGPGTMVTVSS
VL: EIVLTQSPGTLSLSPGERATLSCRASQTINSNYLAWYRQKPGQTPRLLIYGTSSRATGIPDRFSGSGSGTDFSLTISRLEPEDFAVFYCQQYAGLPTFGPGTKVDIK
As for B8, the “% Kill” value stood at 83% with PC3/hPRLR cells (PC3/hPRLR, Table 18); 71% with MCF7 (MCF7/ATCC) cells (MCF7/ATCC, Table 18); 70% in the series with MCF7 (MCF7/ATCC) cells (MCF7/ATCC, Table 20); 90% with T47D cells (Table 19); 100% with HEK293 (293) cells; 81% in series [1] (Table 18). The “% Kill” value in series [1] (Table 20) is on record as 90%. In addition, the IC50 in the series with PC3/hPRLR cells (PC3/hPRLR, Table 18) stood at 0.3 nM; with MCF7 (MCF7/ATCC) cells (MCF7/ATCC, Table 18), 90 nM; in the series with MCF7 (MCF7/ATCC) cells (MCF7/ATCC, Table 20), 150 nM; in the series with T47D cells (Table 19), 1 nM; in the series with HEK293 (293) cells, 85 nM; in series [1] (Table 18), 0.1 nM. In addition, the IC50 in series [1] (Table 20) turned out to be 0.3 nM.
